# T1: human IL-4 receptor alpha chain (Interleukin-4 receptor subunit alpha, Uniprot #P24394, SEQ ID NO: 12) (human, UniProt P24394 26-232, limits assumed)
# T1 construct: also called IL-4RA; human IL-4RA
# T1 sequence: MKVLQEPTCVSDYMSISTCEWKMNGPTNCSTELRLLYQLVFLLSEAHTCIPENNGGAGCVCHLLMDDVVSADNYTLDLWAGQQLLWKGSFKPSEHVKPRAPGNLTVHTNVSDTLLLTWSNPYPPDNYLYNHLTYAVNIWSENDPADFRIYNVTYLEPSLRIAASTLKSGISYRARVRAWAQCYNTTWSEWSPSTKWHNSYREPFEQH
# Molecular target: T1, human IL-4 receptor alpha chain …
# Experiment: method not stated; target IL-4RA implied by the text
binder,measurement,value
"IL-4 double mutant IL-4 (R121D, Y124D) (ligand, UniProt P05112 25-153, looked up, they probably count on mature IL-4, not on the precursor entry; also called IL-4 mutant (R121D, Y124D); IL-4 mutant) HKCDITLQEIIKTLNSLTEQKTLCTELTVTDIFAASKNTTEKETFCRAATVLRQFYSHHEKDTRCLGATAQQFHRHKQLIRFLKRLDRNLWGLAGLNSCPVKEANQSTLENFLERLKTIMDEKDSKCSS",Kd,0.154 nM
same,koff,0.0029 s⁻¹
same,kon,1.9e+07 M⁻¹ s⁻¹

# Reference: patent US20170112900A1 (Pieris, published 2017)
